This assay addresses biotin-labeled soluble FcRn. Kind of assay: FcRn ELISA pH 6.0. (In general: An ELISA detects its analyte on a solid surface through an enzyme-linked reagent.)

Substance anti-CD20 IgG1 H285N (antibody) gave a FcRn pH6.0 (% of wild type) of 202. The same measure for anti-CD20 IgG1 H429A (antibody): 61. In the case of anti-CD20 IgG1 H429F (antibody) it was 77; in that of anti-CD20 IgG1 H429M (antibody), 83; in that of anti-CD20 IgG1 I253A (antibody), 0.

In turn, anti-CD20 IgG1 I332A (antibody) showed a FcRn pH6.0 (% of wild type) of 96.

For anti-CD20 IgG1 I332D (antibody), the FcRn pH6.0 (% of wild type) is 78. In turn, anti-CD20 IgG1 I332E (antibody) displayed a FcRn pH6.0 (% of wild type) of 86. Substance anti-CD20 IgG1 I332F (antibody) displayed a FcRn pH6.0 (% of wild type) of 108. The same measure for anti-CD20 IgG1 I332G (antibody): 94; for anti-CD20 IgG1 I332H (antibody): 129. The same measure for anti-CD20 IgG1 I332K (antibody): 146; for anti-CD20 IgG1 I332L (antibody): 127; for anti-CD20 IgG1 I332M (antibody): 128. In the case of anti-CD20 IgG1 I332N (antibody) it was 92; in that of anti-CD20 IgG1 I332Q (antibody), 98; in that of anti-CD20 IgG1 I332R (antibody), 114. Take anti-CD20 IgG1 I332S (antibody): the FcRn pH6.0 (% of wild type) is 263. In the case of anti-CD20 IgG1 I332T (antibody) it was 100. The same measure for anti-CD20 IgG1 I332V (antibody): 115; for anti-CD20 IgG1 I332W (antibody): 123; for anti-CD20 IgG1 I332Y (antibody): 93.

Turning to anti-CD20 IgG1 I377G (antibody), the FcRn pH6.0 (% of wild type) is 76. For anti-CD20 IgG1 I377K (antibody), the FcRn pH6.0 (% of wild type) is 167. The substance anti-CD20 IgG1 I377P (antibody) had a FcRn pH6.0 (% of wild type) of 98. The same measure for anti-CD20 IgG1 K248A (antibody): 15; for anti-CD20 IgG1 K248F (antibody): 0.

anti-CD20 IgG1 K248P (antibody) returned a FcRn pH6.0 (% of wild type) of 34. On to anti-CD20 IgG1 K248Q (antibody), for which the FcRn pH6.0 (% of wild type) came out at 38. In the case of anti-CD20 IgG1 K248W (antibody) it was 30; in that of anti-CD20 IgG1 K288N (antibody), 162. In turn, anti-CD20 IgG1 K288P (antibody) showed a FcRn pH6.0 (% of wild type) of 119. The same measure for anti-CD20 IgG1 K317P (antibody): 145; for anti-CD20 IgG1 K317T (antibody): 49. Turning to anti-CD20 IgG1 K326W (antibody), the FcRn pH6.0 (% of wild type) is 93. In the case of anti-CD20 IgG1 K439E (antibody) it was 94. On to anti-CD20 IgG1 K439H (antibody), for which the FcRn pH6.0 (% of wild type) stood at 99.

Substance anti-CD20 IgG1 K439Q (antibody) returned a FcRn pH6.0 (% of wild type) of 74. In the case of anti-CD20 IgG1 L235A (antibody) it was 102; in that of anti-CD20 IgG1 L235E (antibody), 87. The same measure for anti-CD20 IgG1 L235G (antibody): 85; for anti-CD20 IgG1 L235Q (antibody): 81.

For the substance anti-CD20 IgG1 L235R (antibody), the FcRn pH6.0 (% of wild type) is 93. The same measure for anti-CD20 IgG1 L235S (antibody): 85; for anti-CD20 IgG1 L251F (antibody): 64; for anti-CD20 IgG1 L251H (antibody): 46. The same measure for anti-CD20 IgG1 L251I (antibody): 7; for anti-CD20 IgG1 L251W (antibody): 0; for anti-CD20 IgG1 L314F (antibody): 42. The same measure for anti-CD20 IgG1 L314I (antibody): 86; for anti-CD20 IgG1 L314V (antibody): 21. Consider anti-CD20 IgG1 L314W (antibody), for which the FcRn pH6.0 (% of wild type) came out at 5.

Turning to anti-CD20 IgG1 L314Y (antibody), the FcRn pH6.0 (% of wild type) is 64. The same measure for anti-CD20 IgG1 L328V (antibody): 101; for anti-CD20 IgG1 L432R (antibody): 38; for anti-CD20 IgG1 L432S (antibody): 70. anti-CD20 IgG1 M252Y (antibody) gave a FcRn pH6.0 (% of wild type) of 964. Substance anti-CD20 IgG1 N286F (antibody) yielded a FcRn pH6.0 (% of wild type) of 307.

For the substance anti-CD20 IgG1 N315F (antibody), the FcRn pH6.0 (% of wild type) was 51.

Substance anti-CD20 IgG1 N315K (antibody) registered a FcRn pH6.0 (% of wild type) of 88. The same measure for anti-CD20 IgG1 N315L (antibody): 103; for anti-CD20 IgG1 N315P (antibody): 14. anti-CD20 IgG1 N315R (antibody) gave a FcRn pH6.0 (% of wild type) of 71. In the case of anti-CD20 IgG1 N434F (antibody) it was 1010. The same measure for anti-CD20 IgG1 N434G (antibody): 358; for anti-CD20 IgG1 N434H (antibody): 855. In the case of anti-CD20 IgG1 N434I (antibody) it was 6. anti-CD20 IgG1 N434W (antibody) came in with a FcRn pH6.0 (% of wild type) of 1340. In the case of anti-CD20 IgG1 N434Y (antibody) it was 1620.

Regarding anti-CD20 IgG1 P238A (antibody), the FcRn pH6.0 (% of wild type) worked out at 90. The same measure for anti-CD20 IgG1 P238E (antibody): 76; for anti-CD20 IgG1 P238G (antibody): 66. The same measure for anti-CD20 IgG1 P238H (antibody): 72. In the case of anti-CD20 IgG1 P238I (antibody) it was 94. Regarding anti-CD20 IgG1 P238L (antibody), the FcRn pH6.0 (% of wild type) turned out to be 115. The same measure for anti-CD20 IgG1 P238V (antibody): 102; for anti-CD20 IgG1 P238W (antibody): 87. anti-CD20 IgG1 P238Y (antibody): the FcRn pH6.0 (% of wild type) was 74. For anti-CD20 IgG1 P244L (antibody), the FcRn pH6.0 (% of wild type) stood at 124. In the case of anti-CD20 IgG1 P245R (antibody) it was 188; in that of anti-CD20 IgG1 P247A (antibody), 97. With anti-CD20 IgG1 P247D (antibody), the FcRn pH6.0 (% of wild type) worked out at 54.

As for anti-CD20 IgG1 P247E (antibody), the FcRn pH6.0 (% of wild type) came to 52.

The substance anti-CD20 IgG1 P247F (antibody) yielded a FcRn pH6.0 (% of wild type) of 6.

The substance anti-CD20 IgG1 P247G (antibody) gave a FcRn pH6.0 (% of wild type) of 75. The same measure for anti-CD20 IgG1 P247H (antibody): 35; for anti-CD20 IgG1 P247I (antibody): 79; for anti-CD20 IgG1 P247L (antibody): 57. In the case of anti-CD20 IgG1 P247M (antibody) it was 18. The same measure for anti-CD20 IgG1 P247N (antibody): 41.

Substance anti-CD20 IgG1 P247Q (antibody) had a FcRn pH6.0 (% of wild type) of 26. In the case of anti-CD20 IgG1 P247R (antibody) it was 72. In the case of anti-CD20 IgG1 P247S (antibody) it was 81; in that of anti-CD20 IgG1 P247T (antibody), 75. The same measure for anti-CD20 IgG1 P247W (antibody): 0.

In turn, anti-CD20 IgG1 P247Y (antibody) yielded a FcRn pH6.0 (% of wild type) of 7. The same measure for anti-CD20 IgG1 P257A (antibody): 319. In the case of anti-CD20 IgG1 P257I (antibody) it was 1020. In the case of anti-CD20 IgG1 P257M (antibody) it was 835; in that of anti-CD20 IgG1 P257N (antibody), 867; in that of anti-CD20 IgG1 P257S (antibody), 184.

anti-CD20 IgG1 P257V (antibody) had a FcRn pH6.0 (% of wild type) of 447. The same measure for anti-CD20 IgG1 P271T (antibody): 96; for anti-CD20 IgG1 P329Y (antibody): 107; for anti-CD20 IgG1 P343A (antibody): 110. In the case of anti-CD20 IgG1 P343D (antibody) it was 102; in that of anti-CD20 IgG1 P343E (antibody), 345. In turn, anti-CD20 IgG1 P343F (antibody) had a FcRn pH6.0 (% of wild type) of 89.

anti-CD20 IgG1 P343G (antibody) registered a FcRn pH6.0 (% of wild type) of 110.

Turning to anti-CD20 IgG1 P343H (antibody), the FcRn pH6.0 (% of wild type) was determined as 191.

Source of the values: patent US20070224188A1.
